Measured values reported in US20180362629A1 (ZOETIS BELGIUM S A, published 2018).
Residue numbers refer to the chain shown, from its start. Several values for one entry are separate records, joined by “and”; a condition that tells them apart may be missing. Equal values may be shown once.

T1: recombinant canine β NGF (canine, UniProt Q29074 110-229 (pig entry))
T1 construct: also called canine NGF
T1 chain: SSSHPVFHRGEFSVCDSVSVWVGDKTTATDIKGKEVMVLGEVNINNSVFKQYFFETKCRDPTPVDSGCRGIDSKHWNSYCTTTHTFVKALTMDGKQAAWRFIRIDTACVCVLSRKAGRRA

B1: 3F7 hybridoma supernatant (antibody, mouse IgG1, V domains shown)
VH: QVQLKESGPGLVAPSQSLSITCTVSGFSLTGYNINWVRQPPGKGLEWLGMIWGYGDTDYNSALKSRLSISKDNSKSQVFLKMNSLQTDDTARYYCARDHYGGNDWYFDVWGTGTTVTVSS
VL: DIQMTQTTSSLSASLGDRVTITCRASQDITNYLNWYQQKPDGTVKLLIYYTSRLHSGVPSRFSGSGSGTDYSLTISNLDQEDIATYFCQQGKTLPRTFGGGTKLEIKR
notes: Tested as supernatant of the hybridoma before subcloning; mouse IgG1 kappa; also called ML130-3F7.4A8
B2: PR-1254972 (antibody, mouse IgG2b, V domains shown)
VH: EVHLVESGGGLVKPGGFLILSCAASGFTFSDYYMFWIRQTPGKRLEWVATISDGGSYTYYTDNVKGRFTISRDNVKNNLYLQMSHLKSADTAMYYCARDWSDSEGFAYWGQGTLVTVSA
VL: DVLMTQTPLSLPVSLGDQASISCRSSQSIVQSNGNTYLEWYLQKPGQSPKLLIYKVSNRFSGVPDRFSGSGSGTDFTLKISRVEAEDLGVYYCFQGSHVPFTFGSGTKLEIKR
notes: also called 20B10; ML129-20B10.3F4
B3: 20B10 hybridoma supernatant (antibody, mouse IgG2b, V domains shown)
VH: B2 VH
VL: B2 VL
notes: Tested as supernatant of the hybridoma before subcloning; mouse IgG2b kappa; also called ML129-20B10.3F4
B4: 14A9 hybridoma supernatant (antibody, mouse IgG1, V domains shown)
VH: EVQLVESGGGAVKPGGSLTLSCAASGFTFSNHYMYWVRQTPEKRLEWVASISDGGAYTFYPDTVKGRFTISRDNVNNNLYLQMRHLKSEDTAMYYCTREESANNGFAFWGQGTLVTVSA
VL: B2 VL with V30L, Q31H, K50N, K55R, S97A
notes: Tested as supernatant of the hybridoma before subcloning; mouse IgG1 kappa; also called ML130-14A9.5B12
B5: PR-1254977 (antibody, mouse IgG1, V domains shown)
VH: EVQLQQSGAELVKPGASVKLSCTASGFNIKDTYIYWVKQRPEQGLEWIGRIDPANGNTIYASKFQGKASITADTSSNTAYMQLSSLTSGDTAVYYCAGYGYYAYWGQGTTLTVSS
VL: DVVLTQTPLSLPVNIGDQASISCKSTKSLLNGDGFTYLDWYLQKPGQSPQLLIYLVSNRFSGVPDRFSGSGSGTDFTLKISRVEAEDLGVYYCFESNYLFTFGSGTKLEMKR
notes: also called 21D4; ML129-21D4.4A11
B6: 23F1 hybridoma supernatant (antibody, mouse IgG1, V domains shown)
VH: B5 VH with S69T
VL: B5 VL
notes: Tested as supernatant of the hybridoma before subcloning; mouse IgG1 kappa; also called ML129-23F1.4G3
B7: 21D4 hybridoma supernatant (antibody, mouse IgG1, V domains shown)
VH: B5 VH
VL: B5 VL
notes: Tested as supernatant of the hybridoma before subcloning; mouse IgG1 kappa; also called ML129-21D4.4A11
B8: PR-1254973 (antibody, mouse IgG2b, V domains shown)
VH: QVQLQQPGAELVKPGASVKLSCKASGYTFTNYWMHWVKQRPGQGLEWIGRIDPYGGGTKHNEKFKRKATVTADKSSSTAYILLSSLTSEDSAVYYCTRSGYDYYFDVWGTGTTVTVSS
VL: DIQMTQSPASLSASVGETVTVTCRASENIYSFLAWHQQKQGKSPQLLVYNANTLAEGVPSRFSGSGSGTQFSLKINSLQPEDFGSYYCQHHFGTPFTFGSGTKLEIKR
notes: also called 2B12; ML129-2B12.5G9

What was measured:
[1] = target: T2, human β NGF (human, UniProt P01138 122-241, biotinylated in the TrkA inhibition ELISA (sites not given)); assay: TrkA inhibition ELISA; biotin-hNGF bound to rat TrkA/Fc; supernatant 5-fold
T2 sequence (P01138 122-241 limits assumed): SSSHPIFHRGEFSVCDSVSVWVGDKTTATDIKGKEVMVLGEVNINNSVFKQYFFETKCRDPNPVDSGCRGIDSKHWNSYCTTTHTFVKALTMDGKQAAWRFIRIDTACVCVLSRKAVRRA
Description: (§1) The plates were washed three times with PBS/Tween. The plates were blocked with 200 μl/well of 2% milk in PBS for 1 hour at room temperature. The plates were washed three times as above. Rat TrkA/Fc chimera (R&D Systems, catalog #1056-TK) was added at 1 μg/ml (50 μl/well) in PBS/0.1% BSA and then incubated for 1 hour at room temperature. Biotinylated human NGF was titered and pre-incubated with anti-NGF antibody supernatants diluted 1-fold, 5-fold, and 25-fold, or purified anti-NGF mAbs diluted to 0.08, 0.4, 2, or 10 μg/ml for 1 hour at room temperature on a plate shaker. The negative control was unrelated conditioned supernatant. The positive control was sera from a mouse immunized with NGF. The plates were washed and then 50 μl of each biotinylated NGF/Ab mix was added to the appropriate wells. The plates were incubated for 1 hour at room temperature. The plates were washed. […] The plates were incubated for 30 min at room temperature. The plates were washed. 50 μl of TMB (Invitrogen, cat #00-2023) was added and the reaction was stopped using 2N H₂SO₄ (VWR, cat # BDH3500-1). The absorbance at 450 nm was read on a Spectromax 2E plate reader (Molecular Devices), and the absorbance readings are shown in Table 5 The numerical value indicates binding of biotinylated human β NGF to rat TrkA/Fc chimera.

[2] = target: T2, human β NGF; assay: TrkA inhibition ELISA; biotin-hNGF bound to rat TrkA/Fc; supernatant 1-fold
Description: as §1

[3] = target: T2, human β NGF; assay: TrkA inhibition ELISA; biotin-hNGF bound to rat TrkA/Fc; supernatant 25-fold
Description: as §1

[4] = target: T1, recombinant canine β NGF; assay: direct ELISA, canine NGF coated at 1 µg/ml, mAb at 2 µg/ml
Description: (§2) To determine if purified mouse anti-NGF mAbs bind to canine β NGF, ELISA plates were coated with 50 μl/well of canine NGF (Abbott Laboratories) at 1 μg/ml in PBS and incubated over night at 4° C. The plates were washed three times with PBS+Tween buffer. The plates were blocked with 200 μl/well of 2% milk in PBS for 1 hour at room temperature. The plates were washed three times as above. Purified antibodies were diluted to 0.4, 2, or 10 μg/ml. 50 μl of each concentration of purified antibody was added to the plates. The plates were incubated for 1 hour at room temperature. The plates were washed. 50 μl of a 5000-fold diluted goat anti-mouse IgG Fc-HRP (Thermo, catalog #31439) was added. The plates were incubated for 1 hour at room temperature. 50 μl of TMB (Invitrogen, catalog #00-2023) was added and the reaction was stopped using 2N H₂SO₄ (VWR, catalog # BDH3500-1). The absorbance at 450 nm was read on a Spectromax 2E plate reader (Molecular Devices). The results are shown in Table 9, and the numerical value indicates binding of mouse anti-NGF antibodies to canine β NGF.

[5] = target: T1, recombinant canine β NGF; assay: cell-based or functional assay
[6] = target: T1, recombinant canine β NGF; assay: cell-based or functional assay
[7] = target: T1, recombinant canine β NGF; assay: direct ELISA, canine NGF coated at 1 µg/ml, mAb at 0.4 µg/ml
Description: as §2

[8] = target: T1, recombinant canine β NGF; assay: SPR (Biacore), mAb captured on goat anti-mouse IgG Fc, canine NGF injected; Expt 1
Description: (§3) A biomolecular protein interaction analysis was used to evaluate the binding kinetics of the interaction between the purified anti-NGF hybridoma antibodies and recombinant canine β NGF. The antibodies were captured using a goat anti-mouse IgG FC (10000 RU) surface which was directly immobilized to a CM5 chip using an amine coupling procedure according to the manufacturer's instructions (Biacore). A sample size of 5 μl of antibody at a concentration of 1 μg/ml was captured at 10 μl minute. Recombinant canine NGF was used as the antigen. Canine NGF was injected at 75 μl/min (concentration range: 5-0.039 nM) for mouse antibodies. The association rate was monitored for 3.3 minutes and the dissociation rate was monitored for 10 minutes. Aliquots of canine NGF were also simultaneously injected over a reference reaction CM surface to record any nonspecific binding background. The instrument sensitivity for on-rate is I×IO⁷, such that any on-rate that is faster than I×IO⁷ may not be accurately measured; the instrument sensitivity for off-rate is […], such that any off-rate that is slower than 1×10⁻⁶ may not be accurately measured. Therefore, an on-rate that is faster than 1×10⁷ is recorded as >1×10⁷ and an off-rate that is slower than 1×10⁻⁶ is recorded as <1×10⁻⁶.

[9] = target: T1, recombinant canine β NGF; assay: SPR (Biacore), mAb captured on goat anti-mouse IgG Fc, canine NGF injected; Expt 2
Description: as §3

[10] = target: T1, recombinant canine β NGF; assay: direct ELISA, canine NGF coated at 1 µg/ml, mAb at 10 µg/ml
Description: as §2

[11] = target: T1, recombinant canine β NGF; assay: SPR (Biacore), mAb captured on goat anti-mouse IgG Fc, canine NGF injected; Average
Description: as §3

| Molecule | absorbance at 450 nm [1] | absorbance at 450 nm [2] | absorbance at 450 nm [3] | absorbance at 450 nm [4] [A450] | PathHunter IC50 (441 pM canine NGF) [5] [nM] | SureFire pERK IC50 (128 pM canine β NGF) [5] | IC50, canine NGF-induced TF-1 cell proliferation (70 pM canine NGF) [6] | absorbance at 450 nm [7] [A450] | Kd [8] [pM] | koff [8] [s⁻¹] | kon [8] [M⁻¹ s⁻¹] | Kd [9] [pM] | koff [9] [s⁻¹] | kon [9] [M⁻¹ s⁻¹] | absorbance at 450 nm [10] [A450] | Kd [11] [pM] | koff [11] [s⁻¹] | kon [11] [M⁻¹ s⁻¹] |
| --- | --- | --- | --- | --- | --- | --- | --- | --- | --- | --- | --- | --- | --- | --- | --- | --- | --- | --- |
| unrelated conditioned supernatant (negative control) | 0.456 OD450 and 0.336 OD450 and 0.388 OD450 | 0.465 OD450 and 0.372 OD450 and 0.386 OD450 | 0.462 OD450 and 0.318 OD450 and 0.386 OD450 |  |  |  |  |  |  |  |  |  |  |  |  |  |  |  |
| B1 | 0.083 OD450 | 0.056 OD450 | 0.149 OD450 |  |  |  |  |  |  |  |  |  |  |  |  |  |  |  |
| B2 |  |  |  | 0.091 | 0.313 | 0.228 nM | 0.303 nM | 0.071 | < 314 | 0.00314 | > 1e+07 | < 321 | 0.00321 | > 1e+07 | 0.154 | < 318 | 0.00318 | > 1e+07 |
| B3 | 0.2 OD450 | 0.166 OD450 | 0.289 OD450 |  |  |  |  |  |  |  |  |  |  |  |  |  |  |  |
| B4 | 0.208 OD450 | 0.121 OD450 | 0.376 OD450 |  |  |  |  |  |  |  |  |  |  |  |  |  |  |  |
| B5 |  |  |  | 0.414 | 0.181 | 17.6 pM | 0.217 nM | 0.223 | < 13.9 | 0.000139 | > 1e+07 | < 16 | 0.00016 | > 1e+07 | 0.552 | < 15 | 0.00015 | > 1e+07 |
| B6 | 0.14 OD450 | 0.108 OD450 | 0.276 OD450 |  |  |  |  |  |  |  |  |  |  |  |  |  |  |  |
| B7 | 0.242 OD450 | 0.133 OD450 | 0.404 OD450 |  |  |  |  |  |  |  |  |  |  |  |  |  |  |  |
| B8 |  |  |  | 0.836 | 0.143 | 18.8 pM | 39 pM | 0.769 | < 12.1 | 0.000121 | > 1e+07 | < 13.8 | 0.000138 | > 1e+07 | 0.905 | < 13 | 0.00013 | > 1e+07 |
